Measured values taken from doi:10.1101/2023.07.12.548668.

B1: 30mer AT-rich DNA (dsDNA)
DNA 1: GAAGTAAAATTAAAAAAACAAAAAGAAGCT
DNA 2: AGCTTCTTTTTGTTTTTTTAATTTTACTTC
B2: 30mer DNA (random) (dsDNA)
DNA 1: GATCCCTCTAGATATCGGGCCCTCGATCCG
DNA 2: CGGATCGAGGGCCCGATATCTAGAGGGATC
B3: 30mer GC-rich DNA (dsDNA)
DNA 1: TACCGGGGCGCGAGCCCAGCGCTCCTCCCA
DNA 2: TGGGAGGAGCGCTGGGCTCGCGCCCCGGTA

Target: XLF (UniProt Q9H9Q4 1-299)
Test: NMR titration (2D lineshape, TITAN); apparent KD; NMR buffer (composition, salt and pH not in material); 800 MHz, 298 K stated for relaxation measurements; EMSA buffer not given
Conditions: protein: recombinant; tags: N-terminal 6xHis-TEV; chain copies: 2; blunt

Sequence of XLF (Q9H9Q4 whole entry): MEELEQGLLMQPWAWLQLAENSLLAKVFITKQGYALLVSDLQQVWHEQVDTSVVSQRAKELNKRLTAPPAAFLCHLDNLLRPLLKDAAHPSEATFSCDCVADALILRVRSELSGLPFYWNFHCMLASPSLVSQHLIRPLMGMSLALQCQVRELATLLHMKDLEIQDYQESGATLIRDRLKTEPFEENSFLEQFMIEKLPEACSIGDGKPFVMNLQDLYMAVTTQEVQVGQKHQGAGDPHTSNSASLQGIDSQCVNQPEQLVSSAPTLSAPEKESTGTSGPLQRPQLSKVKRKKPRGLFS

| Binder | Kd [µM] |
| --- | --- |
| B1 | 4.3 ± 0.42 |
| B2 | 14.3 ± 0.9 |
| B3 | 6.39 ± 0.81 |
